Data from the supplement of paper PMC7125110.
± gives the standard error. Variants at the floor of the assay were thinned out.

B1: glmS ribozyme (parent)
chain: AUAAAAGCGCCAGAACUACAGAAAUGUAGUUGACGAGGAGGAGGUUUAUCGAAUUUUCGGCGGAUGCCUCCAAA

Variants of: B1
Assay: self-cleavage kobs at 10000 uM GlcN6P; higher = faster cleavage; RNA array
Settings: with glucosamine-6-phosphate
In short: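 Tiles bearing barcoded ribozyme variants, transcribed in situ by E. coli RNA polymerase on sequenced MiSeq chips, were imaged over ~14 h at 37 °C using a hybridised Cy3 probe. Glucosamine-6-phosphate was supplied at 40 μM to 10 mM in HEPES/KCl/Mg(OAc)2 buffer. kobs came from one- or two-exponential decay fits to normalised per-tile medians, and weighted Michaelis–Menten fits then provided kcat and KM.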

| Variant | self-cleavage kobs at 10000 uM GlcN6P |
| --- | --- |
| G13U A36U G44U | < 1e-05 s⁻¹ |
| C16A U31C G41C C68A | < 1e-05 s⁻¹ |
| A12G G63C C70U | < 1e-05 s⁻¹ |
| G37A G40A C58U G66C | < 1e-05 s⁻¹ |
| A12U A42U C70U | 0.00014 ± 3.1e-05 s⁻¹ |
| G13U C16U A53U G62U | < 1e-05 s⁻¹ |
| G13U G38C G62A | < 1e-05 s⁻¹ |
| A14U A15C C68U | 6.11e-05 ± 2e-05 s⁻¹ |
| A12G U57C C58G | 2.94e-05 ± 1.4e-05 s⁻¹ |
| U31A A36G U49G C50U C58A | < 1e-05 s⁻¹ |
| G29C U45A U46A A52U | 3.37e-05 ± 1.4e-05 s⁻¹ |
| A12G U46G A53U | 9.96e-05 ± 1.8e-05 s⁻¹ |
| A36C U57A | < 1e-05 s⁻¹ |
| G29U A39C G40A G66A | 6.36e-05 ± 1.3e-05 s⁻¹ |
| A14U A36U C50U C70A | 7.4e-05 ± 2.1e-05 s⁻¹ |
| U30G G35U G43C | < 1e-05 s⁻¹ |
| G32A G37C G40A | < 1e-05 s⁻¹ |
| A14C U65G C68U | 0.000226 ± 4.7e-05 s⁻¹ |
| A36U G59U G60C | < 1e-05 s⁻¹ |
| A12G G40A U55C | 9.22e-05 ± 2e-05 s⁻¹ |
| U30C G35U G43U G66U | < 1e-05 s⁻¹ |

| Variant | self-cleavage kobs at 10000 uM GlcN6P |
| --- | --- |
| U30G G37C U45A A52G | < 1e-05 s⁻¹ |
| G38U C50G U55G U57G | 7.32e-05 ± 2e-05 s⁻¹ |
| U31A U46G | 0.00387 ± 0.0007 s⁻¹ |
| A15G C61G G62C | < 1e-05 s⁻¹ |
| U30G A53U U69A | 4.29e-05 ± 1.8e-05 s⁻¹ |
| A12G G29A U46C | 6.56e-05 ± 1.2e-05 s⁻¹ |
| C11A U54G A64G U69G | 9.78e-05 ± 2.2e-05 s⁻¹ |
| G29C U31C G66A | 0.000105 ± 2.5e-05 s⁻¹ |
| A15U C50U C61G A64G | < 1e-05 s⁻¹ |
| U31C G38C U45A C50A C58U | < 1e-05 s⁻¹ |
| U31A U47G A48G | 3.62e-05 ± 1.3e-05 s⁻¹ |
| G29U U47G C67G | 0.000103 ± 1.9e-05 s⁻¹ |
| C16G C67A C70U | 9.5e-05 ± 2.1e-05 s⁻¹ |
| C11G C50G C68G C71U | 8.16e-05 ± 1.7e-05 s⁻¹ |
| A14G U49G U55C | 0.00199 ± 0.00057 s⁻¹ |
| G37C A42C U57A | < 1e-05 s⁻¹ |
| A15C C16G U31A | 0.000253 ± 7.3e-05 s⁻¹ |
| A33U A42C U49A C58G C61G | < 1e-05 s⁻¹ |
| U31A A33G C67A | < 1e-05 s⁻¹ |
| G38A G59C U65C C70A | < 1e-05 s⁻¹ |
| A28C C68U | 0.00228 ± 0.00063 s⁻¹ |

| Variant | self-cleavage kobs at 10000 uM GlcN6P |
| --- | --- |
| G38C G44C A53U G62C | < 1e-05 s⁻¹ |
| A39C G40A C58G | < 1e-05 s⁻¹ |
| C34U G38C G60C | < 1e-05 s⁻¹ |
| G35C A42U C71U | < 1e-05 s⁻¹ |
| C16G U45G U46A | 0.000584 ± 0.00015 s⁻¹ |
| A15G G29A G32A A64G | 0.000605 ± 0.00015 s⁻¹ |
| G38A G43C U65G | < 1e-05 s⁻¹ |
| G13U G37C G43C | < 1e-05 s⁻¹ |
| A14C U57A C67A | 3.08e-05 ± 1.4e-05 s⁻¹ |
| C11U G29U G40U G62U | < 1e-05 s⁻¹ |
| C16A G43A G44A A48U | < 1e-05 s⁻¹ |
| A12C U31C G43U G44U | < 1e-05 s⁻¹ |
| A12C C16U A53C G63A | < 1e-05 s⁻¹ |
| U30A A33U G37C U69A | < 1e-05 s⁻¹ |
| A12G A39C G66U | 6.62e-05 ± 1.8e-05 s⁻¹ |
| U31A A39C U56G | 0.00147 ± 0.0004 s⁻¹ |
| A12G C58A C70G | 3.02e-05 ± 1.3e-05 s⁻¹ |
| A15C C16A G37U G40U G62U C70A | < 1e-05 s⁻¹ |
| A36C U54A G59A | < 1e-05 s⁻¹ |
| G13C C71A | 4.74e-05 ± 1.4e-05 s⁻¹ |
| C34A G41A C68G | < 1e-05 s⁻¹ |

| Variant | self-cleavage kobs at 10000 uM GlcN6P |
| --- | --- |
| U31G A53G U69C | 0.00324 ± 0.00093 s⁻¹ |
| G32A A42G A53G | 0.00295 ± 0.00072 s⁻¹ |
| A14U A36G A64G C70G | < 1e-05 s⁻¹ |
| A15U G43A A64U C68G | < 1e-05 s⁻¹ |
| A33C G44C G60A | < 1e-05 s⁻¹ |
| C16G U45C C67G | 0.000811 ± 0.00018 s⁻¹ |
| G13A G32C U69G | 5.76e-05 ± 2.1e-05 s⁻¹ |
| G38A A52U U56G | < 1e-05 s⁻¹ |
| G13A A36C G38U | < 1e-05 s⁻¹ |
| A33G A42G G59U C61A | < 1e-05 s⁻¹ |
| A14C G44C A52C U65A | < 1e-05 s⁻¹ |
| A14G G29A U30C A39G | 4.63e-05 ± 1.6e-05 s⁻¹ |
| C34A G66U C67G | < 1e-05 s⁻¹ |
| A33U U47A | 9.99e-05 ± 1.7e-05 s⁻¹ |
| U30C G66A C71U | 0.000123 ± 2.3e-05 s⁻¹ |
| A12U A42G C58G | 0.00079 ± 0.00015 s⁻¹ |
| C16A U30G C34U | < 1e-05 s⁻¹ |
| A14C G59C G62C | < 1e-05 s⁻¹ |
| U30C G38A G63C U69C | < 1e-05 s⁻¹ |
| G35C G43C | < 1e-05 s⁻¹ |
